# T1: GST-30K fusion protein (bacterially expressed 30K TMV movement protein fused to GST) (Schistosoma japonicum; Tobacco mosaic …, UniProt P03583 1-268)
# T1 construct: not shown: glutathione S-transferase, Schistosoma japonicum (Pharmacia GST-System)
# T1 sequence (looked up): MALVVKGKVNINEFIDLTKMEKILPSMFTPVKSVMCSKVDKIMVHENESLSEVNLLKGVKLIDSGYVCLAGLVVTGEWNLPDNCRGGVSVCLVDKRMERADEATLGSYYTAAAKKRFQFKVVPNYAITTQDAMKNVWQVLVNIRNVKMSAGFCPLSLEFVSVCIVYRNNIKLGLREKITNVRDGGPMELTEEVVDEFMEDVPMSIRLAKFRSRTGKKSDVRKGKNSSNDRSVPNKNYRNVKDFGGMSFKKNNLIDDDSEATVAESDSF
# B1: scFv 30-2 (scFv)
# scFv: EVKLQQSGAELVKPGASVKISCKASDYSFTGYNMNWVKQSHGKSLEWIGNINPYYGSTSYNQKFKGKATLTVDKSSSTAYMQLNSLTSEDSAVYYCAVGGNYVDWFAYWGQGTLVTVSSGGGGSGGGGSGGGGSDILLTQSPLSLPVSLGDHASISCRSSQSLVHSNGNTYLHWYLQNPGQSPKLLIYKVSNRFSGIPDRFSGSGSGTDFTLKISRVEAEDLGVYFCSQSTHVPYTFGGGTKLELKRAVDAAAEQKLISEEDLNGAA
# notes: also called 30K specific scFv No. 2; scFv 30K-2
# How the values were obtained:
# [1] = target: T1, GST-30K fusion protein (bacterially …); test: ELISA of scFvs (member of the panel of 10)
# [2] = target: bacterially expressed GST-protein alone (Schistosoma japonicum, UniProt P08515 1-218 = GST); test: ELISA of scFvs (member of the panel of 10)
# Chain of bacterially expressed GST-protein alone (P08515 whole entry): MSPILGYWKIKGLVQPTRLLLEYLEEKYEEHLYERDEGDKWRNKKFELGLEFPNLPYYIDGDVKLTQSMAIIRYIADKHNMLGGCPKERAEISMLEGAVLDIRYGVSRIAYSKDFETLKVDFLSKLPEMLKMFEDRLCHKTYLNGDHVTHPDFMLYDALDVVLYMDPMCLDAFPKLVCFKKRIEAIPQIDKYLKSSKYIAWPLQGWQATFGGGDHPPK
binder,measurement,setting,value
B1,binding result,[1],binds
same,binding result,[2],no binding

# — patent publication US6825325 (FRAUNHOFER GESELLSCHAFT ZUR FORDERUNG DER ANGEWANDTEN …, dated 2004)
